Changes are numbered by the printed parent chain.
Experiments:
Assay in all cases: SPR, KD relative to WT C2;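 note: biacore SPR at 37 °C, anti-C2 mAbs captured via immobilised goat anti-human IgG, C2 alanine or serine surface mutants as analytes, 1:1 model fitted, double-referenced sensograms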
human C2 G707A = molecular target: T1, human C2 G707A (human, UniProt P06681 21-752)
T1 sequence: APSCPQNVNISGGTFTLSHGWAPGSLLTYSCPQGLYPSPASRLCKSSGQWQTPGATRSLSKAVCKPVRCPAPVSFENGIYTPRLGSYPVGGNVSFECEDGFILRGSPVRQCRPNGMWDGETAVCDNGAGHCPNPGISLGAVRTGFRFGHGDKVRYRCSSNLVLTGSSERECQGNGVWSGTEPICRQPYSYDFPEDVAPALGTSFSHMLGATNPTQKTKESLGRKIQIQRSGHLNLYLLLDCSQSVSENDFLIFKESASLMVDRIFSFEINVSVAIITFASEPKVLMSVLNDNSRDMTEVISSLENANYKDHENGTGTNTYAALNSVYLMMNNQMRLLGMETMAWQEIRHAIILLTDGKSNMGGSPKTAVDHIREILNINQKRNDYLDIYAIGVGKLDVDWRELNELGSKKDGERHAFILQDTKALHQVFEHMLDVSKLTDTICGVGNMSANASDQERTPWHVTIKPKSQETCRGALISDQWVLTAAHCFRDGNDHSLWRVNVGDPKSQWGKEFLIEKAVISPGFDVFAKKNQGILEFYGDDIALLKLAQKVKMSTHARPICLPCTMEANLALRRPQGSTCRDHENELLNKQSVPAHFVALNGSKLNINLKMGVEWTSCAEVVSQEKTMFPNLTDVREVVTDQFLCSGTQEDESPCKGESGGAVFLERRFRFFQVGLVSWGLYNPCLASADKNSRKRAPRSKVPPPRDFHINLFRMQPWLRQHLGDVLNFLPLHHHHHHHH

human C2 V418A = molecular target: T2, human C2 V418A (human, UniProt P06681 21-752)
T2 sequence: T1 sequence with V398A, A687G

human C2 A472S = molecular target: T3, human C2 A472S (human, UniProt P06681 21-752)
T3 sequence: T1 sequence with A452S, A687G

human C2 K676S = molecular target: T4, human C2 K676S (human, UniProt P06681 21-752)
T4 sequence: T1 sequence with K656S, A687G

B1: RF16-226 (antibody, human IgG4 S228P, lambda)
heavy: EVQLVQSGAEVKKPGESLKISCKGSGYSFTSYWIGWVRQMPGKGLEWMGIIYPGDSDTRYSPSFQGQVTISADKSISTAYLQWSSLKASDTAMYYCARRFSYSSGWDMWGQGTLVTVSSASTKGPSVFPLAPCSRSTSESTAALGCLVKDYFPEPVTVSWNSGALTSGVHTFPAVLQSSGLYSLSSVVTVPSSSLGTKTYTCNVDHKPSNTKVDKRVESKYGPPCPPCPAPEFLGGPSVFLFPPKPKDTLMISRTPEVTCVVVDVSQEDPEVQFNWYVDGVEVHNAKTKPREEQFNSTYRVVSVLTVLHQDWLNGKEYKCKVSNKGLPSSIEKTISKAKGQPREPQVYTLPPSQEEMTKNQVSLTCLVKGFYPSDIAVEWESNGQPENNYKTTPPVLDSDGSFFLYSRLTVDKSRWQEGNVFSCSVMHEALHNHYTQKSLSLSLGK
light: SYELTQPPSVSVSPGQTARITCSGDALTSKYVAWYQQKSGLAPLLVIYEDTRRPSGIPAKFSGSSSGSVATLTISGAHGDDEADYYCYSTDASGHQRVFGGGTKLTVLSQPKAAPSVTLFPPSSEELQANKATLVCLISDFYPGAVTVAWKADGSPVKAGVETTKPSKQSNNKYAASSYLSLTPEQWKSHRSYSCQVTHEGSTVEKTVAPTECS
notes: pH-dependent anti-C2 antibody from a phage display library; also called WT
Human C2 G707A
  Fold diff: 2 fold
Human C2 V418A
  Fold diff: 1 fold
Human C2 A472S
  Fold diff: 5 fold
Human C2 K676S
  Fold diff: 2 fold
